First the molecules themselves.
B1: wrmScarlet::TDPT-1 [C. elegans] / TOP-2::3xFLAG [C. elegans] (parent)
chain 1: MSNSDDEIQEIEAKRQKMSQEDSEVEIEILDEPEQGKLKNSSMSDEQKLHEFAIITATDEAFAQSILQDVDWDLKKALDVFYGSEAFAEARSAAVMGASSSMASSGAAVMTAEDLKGFEVSVMSWNIDGLDGRSLLTRMKAVAHIVKNVNPDILFLQEVVDRDLAPIDKLQSLYKIYYSNKGCQYYTAILVSKMFDVEKHDVIHFQNSGMYRTLQILEGSIGGLKVFLLNTHLESTREHRPQRCAQFGFCMDKVREIIAQNPGALVFFGGDLNLRDEEVSRVPDGVKDAWEAAGSDNKTKFTWDTFKNDNKQGFHGAKMRFDRLYWSGPLDKVKFTLEGRQRIRSCLCFPSDHWAINATFFA
chain 2: MSDSDSEFSIEDSPKKKTAPKKEKASPKKKKDDANESMVMTEEDRNVFTSIDKKGGGSKQMAIEDIYQKKSQLEHILLRPDTYIGSVEHTEKTPMWVYNMEESKLEQRDISYVPGLYKIYDEILVNAADNKQRDPKMNTIKITINKEKNEISVYNNGKGIPVTQHKVEKVYVPELIFGTLLTSSNYNDDEKKVTGGRNGYGAKLCNIFSTKFTLETSSRDYKSAFKQTWIKNMTRDEEPKIVKSTDEDFTKITFSPDLAKFKMKELDDDICHLMARRAYDVAGSSKGVAVFLNGKRIPIKGFEDYVQMYTSQFNNEGEPLKIAYEQVGDRWQVALALSEKGFQQVSFVNSIATTKGGRHVDYVADQMVAKFIDSIKRKLTKTSMNIKPFQIKNHMWVFVNCLIENPTFDSQTKETMTLQQKQFGSTCVLSEKFSKAASSVGITDAVMSWVRFKQMDDLNKKCSKTKTSKLKGIPKLEDANDAGTKNSQQCTLILTEGDSAKTLAVSGLSVVGRDKYGVFPLRGKLLNVREGNMKQIADNAEVNAMIKILGLQYKKKYETEDDFKTLRYGKLMVMADQDQDGSHIKGLVINFIHHFWPSLIQRNFVEEFITPIVKATKGKEEVSFYSLPEYSEWRMNTDNWKSYKIKYYKGLGTSTSKEAKEYFLDMVRHRIRFKYNGADDDNAVDMAFSKKKIEERKDWLSKWMREKKDRKQQGLAEEYLYNKDTRFVTFKDFVNRELVLFSNLDNERSIPCLVDGFKPGQRKVLFACFKRADKREVKVAQLAGAVAEISAYHHGEQSLMGTIVNLAQDYVGSNNINLLLPIGQFGTRLQGGKDSASARYIFTQLSPVTRTLFPAHDDNVLRFLYEENQRIEPEWYCPIIPMVLVNGAQGIGTGWSTNIPNYNPRELVKNIKRLIAGEPQKALAPWYKNFRGKIIQIDPSRFACYGEVAVLDDNTIEITELPIKQWTQDYKEKVLEGLMESSDKKSPVIVDYKEYHTDTTVKFVVKLSPGKLRELERGQDLHQVFKLQAVINTTCMVLFDAAGCLRTYTSPEAITQEFYDSRQEKYVQRKEYLLGVLQAQSKRLTNQARFILAKINNEIVLENKKKAAIVDVLIKMKFDADPVKKWKEEQKLKELRESGEIELDEDDLAAVAVEEDEAISSAAKAVETKLSDYDYLVGMALIKLSEEEKNKLIKESEEKMAEVRVIEKKTWQDLWHEDLDNFVSELDKQEAREKADQDASIKNAAKKLAADAKTGRGPKKNVCTEVLPSKDGQRIEPMLDAATKAKYEKMSQPKKERVKKEPKEPKEPKKVKKEGQDIKKFMSPAAPKTAKKEKSDGFNSDMSEESDVEFDEGIDFDSDDDGVEREDVVSKPKPRTGKGAAKAEVIDLSDDDEVPAKKPAPAKKAAPKKKKSEFSDLSGGDSDEEAEKKPSTSKKPSPKKAAPKTAEPKSKAVTDFFGASKKNGKKAAGSDDEDDESFVVAPREKSGRARKAPPTYDVDSGSDSDQPKKKRGRVVDSDSD

The first experiment covers variants of B1. Briefly: co-immunoprecipitation (anti-FLAG magnetic agarose beads) with anti-RFP immunoblot, band quantification. The note with it: with TOP-2::3xFLAG [C. elegans]; parent: 1; read off a plot. On the technique in general: A western blot detects proteins with antibodies after separation by electrophoresis.
Regarding chain 1 G117R, the ratio to parent came out at 0.42.

The experiment is the same for the next values; noted with them: with wrmScarlet::TDPT-1 [C. elegans]; parent: 1; read off a plot.
Regarding chain 2 R828C, the ratio to parent worked out at 1.

(Values after paper PMC11261448.)
